Data taken from the DeepSol protein solubility set.

Assay: soluble on expression in E. coli; label from the status in PepcDB or PDB records

Row | Sequence | soluble on expression in E. coli
1 | MKRLNCRRKGIRVRILAIDTSNQTLSIAVCENQKILGSYTATVKRNHSLTLMPAIDYLMSQLNLAPTAIDRFVVAEGPGSYTGLRLGVTTAKTLAYTLKKELVGISSLQTLAANCVGQTGLIVPLFDARRKNVYAGAYRFVNGVWQNELPDQHISLRELLEQLKNEPNLFFVGEDVEKFTEEIAQIIPHGEICDVPQWQIPNAAVLAALGSVAEPVENVHGFLPAYLKKVEAEENWLKTHTPNGESYVEKLLEHHHHHH | not soluble
2 | MKRNLLSSAIIVAIMSLGLTGCDDKKAETETLPPANSQPAAPAPEAKPTEAPVAKAEAKPETPAQPVVDEQAVFDEKMDVYIKCYNKLQIPVQRSLARYADWLKDFKQGPTGEERTVYGIYGISESNLAECEKGVKSAVALTPALQPIDGVAVSYIDAAVALGNTINEMDKYYTQENYKDDAFAKGKTLHQTFLKNLEAFEPVAESYHAAIQEINDKRQLAELKNIEEREGKTFHYYSLAVMISAKQINNLISQDKFDAEAAMKKVSELETLVAQAKEADKGGMNFSFINSAGQYQLEAKKYVRRIRDKVPYSDWDKEQLQDANSSWMVEDSFPRALREYNEMVDDYNSLR | soluble
3 | MKRVALLAVGSFNPPTIAHLRMLEVARSHLETINTQVVEGIMSPVADSYNNKPTLIKSNFRIQMVRAATKSSDWIRADDWECTRTTWTRTIDVLRHHRELVQEKFGSDVGMMLVVGGDVVDSFTRILPDGSNLWNSSDIRTIITEFGLIVLSREGSNPLNTIQSMPAISEFCDRIIQVKDEVCPSGVSSTRLRAAIMNKKSIKYSTPDEVINFIRENNLYQKI | not soluble
4 | MKRVFGILVCFMLLLSGTSVSFAQSEKTKQDKTEETTPKLAEQASSAIVIEQDTGKVLFDKNPNEKLPPASMTKIMTMLLIMEQVEKGKLKLTDKVRASEHAASMGGSQIFLEPGEEMTVNEMLKGIAIASGNDASVAVAEHIAGSEEGFVNMMNKKAKDLGLKNTHFQNPTGLPAKDHYSTANDMAIMAKELMKYPLIRKYTGKYEDYLREDTDKKFWLVNTNKLVRFYPGVDGVKTGFTTEAKYCLTASAEKNGMRVISVVMGAPTSKERNNQVTKLLDYAFGQYMTKKLYTRGEKIKTVQVGKGKKEKVDLVASDNVSLLMKKGENMDKVKQEVIAEKKVKAPIKKGDALGTLVIKKDKDVLLKQTIVAKEDVAAASWWELFKRSFGMFSTSK | not soluble
5 | MKRYISIKGIGTYLPKRKVDSLEIDQMLDVPEGWTLKKAGVKTRYFVDGETSSYMGAEAAKKAVEDAKLTWDDIDCIICGSGTIQQAIPSTASLIQEQLGLQHSGIPCFDINSTCLSFITALDTISYAIECGRYKNVVIISSEISSVGLNWGQNESSILFGDGAAAVVITKGDHSSSIIASHMETYSSGAHLSEIRGGGTMIHPREYSEERKEDFLFDMNGRAIFKLSSKYLMKFIDKLLMDTGYSLADIDLIVPHQASGPAMRLIRKKLGVDEERFMTIFEDYGNMISASIPVALFEAIKQKKVQRGNKILLLGTSAGLSIGGILLEY | not soluble
6 | MKSAEIREAFLRFFEEKGHTRVASSSLIPANDPTLLFTNAGMNQFKDCFLGLEKRAYTRATTSQKCVRAGGKHNDLENVGYTARHHTFFEMLGNFSFGDYFKRDAIHYAWEFLTGEKWLNLPKEKLWVTVYATDDEAYDIWTKEVGVPAERMVRIGDNKGAPYASDNFWAMGDTGPCGPCTEIFFDHGPEIWGGPPGSPEEDGDRYIEIWNNVFMQFNRTADGVMHPLPAPSVDTGMGLERVSAVLQHVHSNYEIDLFQNLLKASAEAIGCANDDAPSLKVVADHIRSCSFLIADGVLPSNEGRGYVLRRIIRRACRHGNKLGARGTFFHKIVAALVAEMGDAFPELKQQQAHIERVLKTEEEQFAKTLEQGLKILEQDLAELQGSVIPGNVVFKLYDTYGFPVDLTNDIARERELTIDEDGFEREMEAQRERARASSAFGMDYNSLVKVDGETRFLGYQGVSGAGQIVALFRDGQAVERLEEGEEGVVVLDQTPFYAESGGQVGDSGYLEAAGVRFDVRDTTKAGGAHLHHGVVARGNLSVGGAVKAEVDASVRQATALNHSATHLLHAALRQVLGDHVQQKGSLVDSQRLRFDFSHFEAIKAEQLKALEDIVNAEIRRNTEVETEETDIDTAKAKGAMALFGEKYGDQVRVLSMGGDFSVELCGGTHVSRTGDIGLFKITSEGGVAAGVRRIEAVTGAAALAYLNGAEEQLKEAASLVKGSRDNLLDKLGALLERNRSLEKELEQLKAKAASAAGDDLSAAAVEIKGAKVLAARLDGLDGKALLALVDQLKNKLGRAVILLGGELDGKVVLVAGVTQDLTGQLKAGELMKQAAAAVGGKGGGRPDMAQGGGTDAAKLDEALALAQRF | not soluble
7 | MKSEETQPFGITIEGVELSDGDVQFADKSLPLPFSTSIHTLSGEVSTLSSDSSEPARVKFEGEVAEYGLAQVNGTVHAWHPTRQTTINVRFRNLQIPEYSPYTVNFAGRKIADGTMDLDLDYTVNEEKLDGQNNLVLHDLKLGEKMESSDAMDLPLDLAIALLQDSDGLEHHHHHH | soluble
8 | MKSGRFIGVMSGTSLDGVDVVLAAIDETMVAQQASLTWPIPVHLKKGILDICQGQPLTLSQLGQLDTQLGRLFAQAVNALLAQQRLQPRDIVAIGCHGQTVWHEPTGEAPHTLQIGDNNHIVAHTGITVVGDFRRRDIALGGQGAPLVPAFHHALLGHPTEKRMVLNIGGIANLSLLFPGQAVRGYDTGPGNMLMDAWIWRQCAQPYDKDAAWAKEGQVILPLLQKMLRDPYFAASAPKSTGREYFNYGWLERHLAAFPGADARDVQATLAELTAVSIAQQVLLNGGCERLMVCGGGGRNPLVMARLAALLPGIEVSTTDKAGISGDDMEALAFAWLAWRTLAGLPGNLPSVTGATEASVLGAIYPANPITQS | not soluble
9 | MKSIISLMAACAIGAASFAAPAFAQDKGSVGIAMPTKSSARWIDDGNNIVKQLQEAGYKTDLQYADDDIPNQLSQIENMVTKGVKVLVIASIDGTTLSDVLKQAGEQGIKVIAYDRLIRNSGDVSYYATFDNFQVGVLQATSITDKLGLKDGKGPFNIELFGGSPDDNNAFFFYDGAMSVLKPYIDSGKLVVKSGQMGMDKVGTLRWDPATAQARMDNLLSAYYTDAKVDAVLSPYDGLSIGIISSLKGVGYGTKDQPLPVVSGQDAEVPSVKSIIAGEQYSTIFKDTRELAKVTVNMVNAVMEGKEPEVNDTKTYENGVKVVPSYLLKPVAVTKENYKQVLVDGGYYKEDQLK | not soluble
10 | MKSKFEASIDNLKEIEMNAYAYELIREIVLPDMLGQDYSSMMYWAGKHLARKFPLESWEEFPAFFEEAGWGTLTNVSAKKQELEFELEGPIISNRLKHQKEPCFQLEAGFIAEQIQLMNDQIAESYEQVKKRADKVVLTVKWDMKDPVMAGDPLEHHHHHH | soluble
11 | MKSKLKLHGFNNLTKTLSFNIYDICYAETPEDLQAYVQYIDEEYDAERLTQILTDVVDIIGANILNIARQDYDPQGASVTILISEQPVTPTDSQIEESPGPLPDTILAHLDKSHITVHTYPEIHPVDGIATFRVDIDVSTCGVISPLKALNYLIHQFDSDIVTVDYRVRGFTRDIEGRKHFIDHEINSIQNYLSDDTREAYQMTDVNVYQENLFHTKMLLKDFELENYLFGDATRTLSAEQREQVTERLKHEMLEIFYARNMPR | not soluble
12 | MKSLITAGLVFSLIASSYSAQAEEKQSGDLAADIGAVGIPVIAGSIALYKEDYDGFWMFAKGATYTLAATQALKYTVKEERPNGEDNLSFPSGHSSSAFQGASYLQFRYGWEYGVPAYIGASLVGYSRVENEHHYWRDVIAGAVLATTIQYLVTDKYLDSNSVMIAPVINDDHVGIAASFSF | not soluble
13 | MKSLQALFGGTFDPVHYGHLKPVETLANLIGLTRVTIIPNNVPPHRPQPEANSVQRKHMLELAIADKPLFTLDERELKRNAPSYTAQTLKEWRQEQGPDVPLAFIIGQDSLLTFPTWYEYETILDNAHLIVCRRPGYPLEMAQPQYQQWLEDHLTHNPEDLHLQPAGKIYLAETPWFNISATIIRERLQNGESCEDLLPEPVLTYINQQGLYR | soluble
14 | MKSRRAFITDAGGDHGSMNTQATPSPQFYLTAPATCPYLPNQMERKVFTHLVGPRAPEMNDLLTQGGFRRSQNIAYRPACETCRACVSVRILTEQFQPTKSMRRVLAANSDVVATVHAAEPSTEQFALFRRYLDHRHQSGGMSDMSALDYAIMVEDTHVNTRIIEYRVREPGSGIDSSKRGELLAVALSDVMSDGLSMVYSFFNPELEKRSLGTFMIIDHITRTRALGLPHVYLGYWVDGSEKMGYKTRYHPQEHLTPRGWEIYSPKEELEHHHHHH | not soluble
